Consider 1 substance from PMC7509493.

In the assay the target is recombinant flounder IL-2 receptor beta, GST-tagged (GST-rfIL-2Rβ) (flounder (Paralichthys olivaceus)).

With “recombinant flounder IL-2 protein, His-tagged (His-rfIL-2) (ligand)”, the percentage of CD4-1+ T lymphocytes in cultured flounder PBLs (FCM, 72 h), PHA + rfIL-2 after blocking with anti-rfIL-2Rβ polyclonal antibodies (order of 'respectively' assumed) was 12.6%; the percentage of CD4-1+ T lymphocytes in cultured flounder PBLs (FCM, 72 h), PHA + rfIL-2 group without blocking antibodies is 19.2%; the percentage of CD4-1+ T lymphocytes in cultured flounder PBLs (FCM, 72 h), PHA + rfIL-2 with anti-rfIL-2 polyclonal antibodies (order of 'respectively' assumed) was 7.2%; the percentage of CD4-2+ T lymphocytes in cultured flounder PBLs (FCM, 72 h), PHA + rfIL-2 after blocking with anti-rfIL-2Rβ polyclonal antibodies (order of 'respectively' assumed) was determined as 11%. In addition, the percentage of CD4-2+ T lymphocytes in cultured flounder PBLs (FCM, 72 h), PHA + rfIL-2 group without blocking antibodies was 14.5%; the percentage of CD4-2+ T lymphocytes in cultured flounder PBLs (FCM, 72 h), PHA + rfIL-2 with anti-rfIL-2 polyclonal antibodies (order of 'respectively' assumed) worked out at 8.8%; the percentage of IL-2Rβ+ cells in cultured flounder PBLs (FCM, 72 h), PHA + rfIL-2 after blocking with anti-rfIL-2Rβ polyclonal antibodies worked out at 17.8%; the percentage of IL-2Rβ+ cells in cultured flounder PBLs (FCM, 72 h), PHA + rfIL-2 group without blocking antibodies is 26.8%. Also, the percentage of IL-2Rβ+ cells in cultured flounder PBLs (FCM, 72 h), PHA + rfIL-2 with anti-rfIL-2 polyclonal antibodies was 13.3%.
